In patent publication US20060029603A1 (GlaxoSmithKline, published 2006):
Like-named read-outs stand apart in the source and are kept apart here.

What was measured:
GST-human NOGO-A56 [1] = molecular target: T1, GST-human NOGO-A56 (human, UniProt P08515 1-218 = GST); assay: ELISA, coated GST-human NOGO-A56, transfection supernatant, anti-human kappa-HRP, OD 490 nm
T1 construct: GST-tagged fusion expressed in E. coli BL21 and purified on glutathione-sepharose; coated on ELISA plates or amine-coupled to a CM5 chip; also called hNOGO; recombinant human NOGO
T1 sequence (P08515 1-218, tags or fused parts left off): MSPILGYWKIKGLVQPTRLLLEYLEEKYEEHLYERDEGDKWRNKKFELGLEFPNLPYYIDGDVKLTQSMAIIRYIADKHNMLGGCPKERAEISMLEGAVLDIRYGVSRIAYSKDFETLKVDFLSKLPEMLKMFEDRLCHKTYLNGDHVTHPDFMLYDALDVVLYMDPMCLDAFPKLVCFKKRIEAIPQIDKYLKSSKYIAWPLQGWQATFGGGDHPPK
Protocol: (§1) GST-human NOGO-A56 (SEQ ID: 76) at 1 μg/ml in PBS was coated onto Nunc Immunosorp plates (100 μl per well) at 4° C. overnight. Wells were rinsed once with TBS+0.05% Tween (TBST) then incubated with 2% BSA in TBST to block non-specific binding sites at room temperature for 1 hour. Antibodies were diluted in TBST+2% BSA to 10 μg/ml and 1/2 dilutions made from this. Antibodies were added to wells in duplicate and incubated at room temperature for 1 hour. Wells were washed three times with TBST then incubated with anti-human kappa peroxidase conjugate (1:2000) for 1 hour. The wells were washed three times with TBST and then incubated with 100 μl OPD peroxidase substrate (Sigma) per well for 10 minutes. The colour reaction was stopped by the addition of 25 μl concentrated H₂SO₄. Optical density at 490 nm was measured using a plate reader. Background values read from wells with no antibody were subtracted.

GST-human NOGO-A56 [2] = molecular target: T1, GST-human NOGO-A56; assay: SPR (Biacore) off-rate ranking, CHO-K1 transient supernatant over GST-human NOGO-A56 chip; single experiment
Protocol: (§2) hNOGO (GST-human NOGO-A56) was immobilised to a CM5 chip by primary amine coupling using the Biacore Wizard program designed for targeted immobilisation levels. The CM5 sensor surface was activated by passing a solution of 50 mM N-hydroxy-succinimide (NHS) and 200 mM N-ethyl-N′-dimethylaminopropyl […] (EDC). Then hNOGO in sodium acetate buffer, pH5.0 or pH 4.5, was passed over the chip and immobilised. After immobilisation was complete any still activated esters were blocked by an injection of 1M ethanolamine hydrochloride, pH8.5.
(§3) The hNOGO chip was prepared as for kinetic analysis. Cell supernatants where taken directly from transient transfections of CHO-K1 cells. These were passed directly over the sensor surface and the interaction measured. A mock transfected cell supernatant was used for double referencing to remove any artefacts due to the tissue culture media. All runs were referenced against a blanked sensor surface (one that had been activated and blocked as described earlier but had no addition of ligand). Analysis of binding was carried out using the BIAevaluation kinetic analysis software version 4.1.

GST-human NOGO-A56 [3] = molecular target: T1, GST-human NOGO-A56; assay: ELISA, coated GST-human NOGO-A56, transfection supernatant, anti-human kappa-HRP, OD 490 nm; remark: listed apart in the source
Protocol: as §1

GST-human NOGO-A56 [4] = molecular target: T1, GST-human NOGO-A56; assay: SPR (Biacore 3000), GST-human NOGO-A56 on CM5, antibody as analyte; single experiment
Protocol: (§4) The binding kinetics of the anti-NOGO monoclonal antibody (mAb) to recombinantly expressed human NOGO-A (GST-human NOGO-A56) was analysed using the Biacore3000 biosensor. The hNOGO-A chip was prepared as follows:
as §2
(§5) The anti-NOGO mAbs were diluted down in HBS-EP (10 mM HEPES, pH 7.4, 150 mM NaCl, 3 mM EDTA, and 0.005% P-20 surfactant) and binding studies were carried out at range of defined antibody concentrations. All runs were referenced against a blanked sensor surface (one that had been activated and blocked as described earlier but had no addition of ligand). Analysis of binding was carried out using the BIAevaluation kinetic analysis software version 4.1. Biacore analysis of other antibodies of the invention essentially followed the same protocol as described herein.

GST-human NOGO-A56 [5] = molecular target: T1, GST-human NOGO-A56; assay: ELISA, coated GST-human NOGO-A56, transfection supernatant, anti-human kappa-HRP, OD 490 nm; remark: listed apart in the source
Protocol: as §1

GST-human NOGO-A56 [6] = molecular target: T1, GST-human NOGO-A56; assay: SPR (Biacore) off-rate ranking, CHO-K1 transient supernatant over GST-human NOGO-A56 chip; mean (SD) of three runs
Protocol: as §2, §3

GST-human NOGO-A56 [7] = molecular target: T1, GST-human NOGO-A56; assay: SPR (Biacore 3000), GST-human NOGO-A56 amine-coupled to CM5, antibody as analyte; mean (SD) of four experiments
Protocol: as §4, §2, §5

GST-human NOGO-A56 [8] = molecular target: T1, GST-human NOGO-A56; assay: ELISA, coated GST-human NOGO-A56, transfection supernatant, anti-human kappa-HRP, OD 490 nm; remark: listed apart in the source
Protocol: as §1

GST-human NOGO-A56 [9] = molecular target: T1, GST-human NOGO-A56; assay: as above; remark: listed apart in the source
Protocol: as §1

GST-human NOGO-A56 [10] = molecular target: T1, GST-human NOGO-A56; assay: SPR (Biacore 3000), GST-human NOGO-A56 on CM5, antibody as analyte; single experiment; remark: listed apart in the source
Protocol: as §2, §5

GST-human NOGO-A56 [11] = molecular target: T1, GST-human NOGO-A56; assay: ELISA, coated GST-human NOGO-A56, transfection supernatant, anti-human kappa-HRP, OD 490 nm; remark: listed apart in the source
Protocol: as §1

B1: H17L13 (antibody, human IgG1, kappa)
heavy: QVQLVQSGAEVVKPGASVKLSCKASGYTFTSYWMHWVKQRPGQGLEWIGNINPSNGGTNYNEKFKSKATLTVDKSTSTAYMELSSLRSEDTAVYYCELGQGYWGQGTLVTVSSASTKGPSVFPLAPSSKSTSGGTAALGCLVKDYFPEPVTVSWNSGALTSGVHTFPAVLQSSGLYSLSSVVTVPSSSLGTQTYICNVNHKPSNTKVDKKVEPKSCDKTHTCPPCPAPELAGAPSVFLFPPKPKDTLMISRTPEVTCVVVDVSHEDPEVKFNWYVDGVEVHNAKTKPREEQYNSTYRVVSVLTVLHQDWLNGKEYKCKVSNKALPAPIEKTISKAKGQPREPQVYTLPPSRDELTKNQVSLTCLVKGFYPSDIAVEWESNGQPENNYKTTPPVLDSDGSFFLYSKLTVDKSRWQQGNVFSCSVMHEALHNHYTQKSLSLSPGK
light: DIVMTQSPLSLPVTLGQPASISCRSSKSLLYKDGKTYLNWFQQRPGQSPQLLIYLMSTRASGVPDRFSGGGSGTDFTLKISRVEAEDVGVYYCQQLVEYPLTFGQGTKLEIKRTVAAPSVFIFPPSDEQLKSGTASVVCLLNNFYPREAKVQWKVDNALQSGNSQESVTEQDSKDSTYSLSSTLTLSKADYEKHKVYACEVTHQGLSSPVTKSFNRGEC
notes: Tested as CHO-K1 supernatant
EC50 (read off the curve) (GST-human NOGO-A56 [1]): ~0.06 µg/mL | koff (GST-human NOGO-A56 [2]): 0.00931 s⁻¹

B2: H14L16 (antibody, human IgG1, kappa, V domains shown)
VH: QVQLVQSGAEVVKPGASVKLSCKASGYTFTSYWMHWVKQAPGQGLEWIGNINPSNGGTNYNEKFKSRATLTRDTSTSTAYMELSSLRSEDTAVYYCELGQGYWGQGTLVTVSS
VL: DIVMTQSPLSNPVTLGQPVSISCRSSKSLLYKDGKTYLNWFLQRPGQSPQLLIYLMSTRASGVPDRFSGGGSGTDFTLKISRVEAEDVGVYYCQQLVEYPLTFGQGTKLEIKR
koff (GST-human NOGO-A56 [2]): 0.0089 s⁻¹ | EC50 (read off the curve) (GST-human NOGO-A56 [3]): ~0.08 µg/mL | Kd (GST-human NOGO-A56 [4]): 3.6 nM | koff (GST-human NOGO-A56 [4]): 0.00739 s⁻¹ | kon (GST-human NOGO-A56 [4]): 2.05e+06 M⁻¹ s⁻¹ | EC50 (read off the curve) (GST-human NOGO-A56 [5]): ~0.09 µg/mL

B3: H1L11 (antibody, human IgG1, kappa, V domains shown)
VH: QVQLVQSGAEVKKPGASVKVSCKASGYTFTSYWMHWVRQAPGQGLEWMGNINPSNGGTNYNEKFKSRVTMTRDTSTSTVYMELSSLRSEDTAVYYCELGQGYWGQGTLVTVSS
VL: DIVITQSPLSLPVTLGQPASISCRSSKSLLYKDGKTYLNWFQQRPGQSPQLLIYLMSTRASGVPDRFSGGGSGTDFTLKISRVEAEDVGVYYCQQLVEYPLTFGQGTKLEIKR
notes: Earlier humanised 2A10
koff (GST-human NOGO-A56 [6]): 0.0403 s⁻¹ | Kd (GST-human NOGO-A56 [7]): 18.6 nM | koff (GST-human NOGO-A56 [7]): 0.0314 s⁻¹ | kon (GST-human NOGO-A56 [7]): 1.73e+06 M⁻¹ s⁻¹ | Kd (GST-human NOGO-A56 [4]): 21.3 nM | koff (GST-human NOGO-A56 [4]): 0.0284 s⁻¹ | kon (GST-human NOGO-A56 [4]): 1.33e+06 M⁻¹ s⁻¹

B4: H15L13 (antibody, human IgG1, kappa, V domains shown)
VH: QVQLVQSGAEVVKPGASVKLSCKASGYTFTSYWMHWVKQRPGQGLEWIGNINPSNGGTNYNEKFKSKATLTVDTSSSTAYMELSSLRSEDSAVYYCELGQGYWGQGTLVTVSS
VL: DIVMTQSPLSLPVTLGQPASISCRSSKSLLYKDGKTYLNWFQQRPGQSPQLLIYLMSTRASGVPDRFSGGGSGTDFTLKISRVEAEDVGVYYCQQLVEYPLTFGQGTKLEIKR
notes: Tested as CHO-K1 supernatant
koff (GST-human NOGO-A56 [2]): 0.00965 s⁻¹ | EC50 (read off the curve) (GST-human NOGO-A56 [8]): ~0.05 µg/mL

B5: H15L18 (antibody, human IgG1, kappa, V domains shown)
VH: QVQLVQSGAEVVKPGASVKLSCKASGYTFTSYWMHWVKQRPGQGLEWIGNINPSNGGTNYNEKFKSKATLTVDTSSSTAYMELSSLRSEDSAVYYCELGQGYWGQGTLVTVSS
VL: DIVMTQDPLSNPVTLGQPVSISCRSSKSLLYKDGKTYLNWFLQRPGQSPQLLIYLMSTRASGVSDRFSGSGSGTDFTLKISRVEAEDVGVYYCQQLVEYPLTFGQGTKLEIKR
notes: Tested as CHO-K1 supernatant
koff (GST-human NOGO-A56 [2]): 0.00594 s⁻¹ | EC50 (read off the curve) (GST-human NOGO-A56 [3]): ~0.04 µg/mL

B6: H16L17 (antibody, V domains shown)
VH: QVQLVQSGAEVKKPGASVKVSCKASGYTFTSYWMHWVKQRPGQGLEWIGNINPSNGGTNYNEKFKSKATLTVDKSTSTAYMELSSLRSEDTAVYYCELGQGYWGQGTLVTVSS
VL: DIVMTQDPLSLPVTLGQPASISCRSSKSLLYKDGKTYLNWFQQRPGQSPQLLIYLMSTRASGVSDRFSGSGSGTDFTLKISRVEAEDVGVYYCQQLVEYPLTFGQGTKLEIKR
notes: copies: 2 + 2
EC50 (read off the curve) (GST-human NOGO-A56 [9]): ~0.1 µg/mL

B7: H18L18 (antibody, human IgG1, kappa, V domains shown)
VH: QVQLVQSGAEVVKPGASVKLSCKASGYTFTSYWMHWVKQRPGQGLEWIGNINPSNGGTNYNEKFKSKATLTVDKSSSTAYMELSSLRSEDSAVYYCELGQGYWGQGTLVTVSS
VL: DIVMTQDPLSNPVTLGQPVSISCRSSKSLLYKDGKTYLNWFLQRPGQSPQLLIYLMSTRASGVSDRFSGSGSGTDFTLKISRVEAEDVGVYYCQQLVEYPLTFGQGTKLEIKR
notes: Tested as CHO-K1 supernatant
koff (GST-human NOGO-A56 [2]): 0.0058 s⁻¹ | EC50 (read off the curve) (GST-human NOGO-A56 [9]): ~0.1 µg/mL

B8: H17L18 (antibody)
heavy: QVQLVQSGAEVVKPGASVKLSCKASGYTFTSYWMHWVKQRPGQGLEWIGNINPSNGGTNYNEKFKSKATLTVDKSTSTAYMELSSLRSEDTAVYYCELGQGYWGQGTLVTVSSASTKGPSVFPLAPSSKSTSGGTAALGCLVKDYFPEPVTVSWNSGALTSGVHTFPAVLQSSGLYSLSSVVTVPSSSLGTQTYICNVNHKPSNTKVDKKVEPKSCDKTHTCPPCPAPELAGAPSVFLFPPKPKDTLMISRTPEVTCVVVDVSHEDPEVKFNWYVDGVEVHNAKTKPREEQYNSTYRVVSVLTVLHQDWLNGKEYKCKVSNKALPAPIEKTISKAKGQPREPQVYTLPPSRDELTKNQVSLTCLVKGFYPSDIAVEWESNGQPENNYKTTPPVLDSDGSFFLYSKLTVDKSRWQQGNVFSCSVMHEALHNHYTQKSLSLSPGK
light: DIVMTQDPLSNPVTLGQPVSISCRSSKSLLYKDGKTYLNWFLQRPGQSPQLLIYLMSTRASGVSDRFSGSGSGTDFTLKISRVEAEDVGVYYCQQLVEYPLTFGQGTKLEIKRTVAAPSVFIFPPSDEQLKSGTASVVCLLNNFYPREAKVQWKVDNALQSGNSQESVTEQDSKDSTYSLSSTLTLSKADYEKHKVYACEVTHQGLSSPVTKSFNRGEC
notes: copies: 2 + 2
EC50 (read off the curve) (GST-human NOGO-A56 [9]): ~0.1 µg/mL

B9: H16L13 (antibody, human IgG1, kappa)
heavy: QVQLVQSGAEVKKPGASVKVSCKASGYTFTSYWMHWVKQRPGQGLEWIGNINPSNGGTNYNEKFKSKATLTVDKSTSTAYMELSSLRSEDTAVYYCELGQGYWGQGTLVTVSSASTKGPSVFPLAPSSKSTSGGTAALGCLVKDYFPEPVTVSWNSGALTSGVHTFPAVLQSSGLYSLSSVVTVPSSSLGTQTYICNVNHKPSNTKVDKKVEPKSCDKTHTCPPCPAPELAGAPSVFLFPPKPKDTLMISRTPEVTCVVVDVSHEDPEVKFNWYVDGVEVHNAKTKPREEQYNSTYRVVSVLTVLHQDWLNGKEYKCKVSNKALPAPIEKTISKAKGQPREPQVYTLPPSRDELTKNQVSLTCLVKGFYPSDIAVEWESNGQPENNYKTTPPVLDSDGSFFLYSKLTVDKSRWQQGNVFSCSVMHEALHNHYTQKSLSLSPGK
light: DIVMTQSPLSLPVTLGQPASISCRSSKSLLYKDGKTYLNWFQQRPGQSPQLLIYLMSTRASGVPDRFSGGGSGTDFTLKISRVEAEDVGVYYCQQLVEYPLTFGQGTKLEIKRTVAAPSVFIFPPSDEQLKSGTASVVCLLNNFYPREAKVQWKVDNALQSGNSQESVTEQDSKDSTYSLSSTLTLSKADYEKHKVYACEVTHQGLSSPVTKSFNRGEC
notes: Tested as CHO-K1 supernatant
EC50 (read off the curve) (GST-human NOGO-A56 [1]): ~0.08 µg/mL | koff (GST-human NOGO-A56 [2]): 0.00907 s⁻¹

B10: H6L13 (antibody, human IgG1, kappa, V domains shown)
VH: QVQLVQSGAEVKKPGASVKVSCKASGYTFTSYWMHWVRQAPGQGLEWIGNINPSNGGTNYNEKFKSRATMTRDTSTSTAYMELSSLRSEDTAVYYCELGQGYWGQGTLVTVSS
VL: DIVMTQSPLSLPVTLGQPASISCRSSKSLLYKDGKTYLNWFQQRPGQSPQLLIYLMSTRASGVPDRFSGGGSGTDFTLKISRVEAEDVGVYYCQQLVEYPLTFGQGTKLEIKR
notes: Humanised 2A10; Human gamma1 mutated constant region and human kappa; also called H6L13 FL
koff (GST-human NOGO-A56 [6]): 0.0173 s⁻¹ | Kd (GST-human NOGO-A56 [7]): 7.68 nM | koff (GST-human NOGO-A56 [7]): 0.0137 s⁻¹ | kon (GST-human NOGO-A56 [7]): 1.82e+06 M⁻¹ s⁻¹ | Kd (GST-human NOGO-A56 [4]): 7.3 nM | koff (GST-human NOGO-A56 [4]): 0.013 s⁻¹ | kon (GST-human NOGO-A56 [4]): 1.77e+06 M⁻¹ s⁻¹ | EC50 (read off the curve) (GST-human NOGO-A56 [9]): ~0.2 µg/mL | Kd (GST-human NOGO-A56 [10]): 7.9 nM | koff (GST-human NOGO-A56 [10]): 0.0233 s⁻¹ | kon (GST-human NOGO-A56 [10]): 2.95e+06 M⁻¹ s⁻¹

B11: H16L18 (antibody, human IgG1, kappa)
heavy: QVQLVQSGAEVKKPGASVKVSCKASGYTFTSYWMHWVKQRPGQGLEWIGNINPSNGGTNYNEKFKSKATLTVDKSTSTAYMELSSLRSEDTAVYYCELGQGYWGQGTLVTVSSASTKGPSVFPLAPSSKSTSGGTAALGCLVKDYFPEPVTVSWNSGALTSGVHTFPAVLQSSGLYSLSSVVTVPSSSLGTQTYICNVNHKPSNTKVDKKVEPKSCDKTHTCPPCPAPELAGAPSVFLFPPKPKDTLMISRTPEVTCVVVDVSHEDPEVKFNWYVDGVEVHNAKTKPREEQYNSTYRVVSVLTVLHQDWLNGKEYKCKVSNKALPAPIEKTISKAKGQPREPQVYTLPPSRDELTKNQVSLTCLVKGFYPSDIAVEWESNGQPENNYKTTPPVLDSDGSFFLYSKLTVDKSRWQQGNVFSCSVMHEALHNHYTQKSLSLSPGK
light: DIVMTQDPLSNPVTLGQPVSISCRSSKSLLYKDGKTYLNWFLQRPGQSPQLLIYLMSTRASGVSDRFSGSGSGTDFTLKISRVEAEDVGVYYCQQLVEYPLTFGQGTKLEIKRTVAAPSVFIFPPSDEQLKSGTASVVCLLNNFYPREAKVQWKVDNALQSGNSQESVTEQDSKDSTYSLSSTLTLSKADYEKHKVYACEVTHQGLSSPVTKSFNRGEC
notes: Humanised 2A10; Human gamma1 mutated constant region and human kappa; also called H16L18 FL
koff (GST-human NOGO-A56 [6]): 0.00609 s⁻¹ | Kd (GST-human NOGO-A56 [7]): 1.33 nM | koff (GST-human NOGO-A56 [7]): 0.00552 s⁻¹ | kon (GST-human NOGO-A56 [7]): 4.18e+06 M⁻¹ s⁻¹ | EC50 (read off the curve) (GST-human NOGO-A56 [1]): ~0.04 µg/mL | EC50 (read off the curve) (GST-human NOGO-A56 [11]): ~0.4 µg/mL | EC50 (read off the curve) (GST-human NOGO-A56 [3]): ~0.03 µg/mL | EC50 (read off the curve) (GST-human NOGO-A56 [8]): ~0.06 µg/mL
